Literature values, collected in PMC11853434.
Like-named read-outs stand apart in the source and are kept apart here.

Columns and labels:
[1] = target: SARS-CoV-2 spike RBD RBD (Severe acute respiratory syndrome coronavirus 2) (UniProt P0DTC2)
[2] = target: SARS-CoV-2 spike RBD RBD (Severe acute respiratory syndrome coronavirus 2) (UniProt P0DTC2); remark: listed apart in the source

Substance	Kd [1] [µM]	Kd [2] [µM]
casirivimab	0.00337	
imdevimab		0.0452
